Reference: patent publication US20130052663A1 (ADDEX PHARMA SA, priority 2010, published 2013)

Legend:
[1] = target: T1, chimeric TNFR1-PDGFR Receptor (Homo sapiens, UniProt P19438); assay: Ca2+-dependent aequorin luminescence in HEK293T Aequorin cells expressing chimeric TNFR1(fl)-PDGFR(cd) receptor, HTS setting; format: cell-based, human TNFR1 / mouse PDGFR; conditions: for Effect on TNF-dependent intracellular calcium increase (luminescence AUC): 1 μM inhibitor, 3 ng/ml TNF
T1 construct: yielding the expression construct pcDNA3.1 hygro TNFR1(fl)-PDGFR(cd) vector; mouse PDGFRb cytoplasmic tyrosine kinase domain (fusion partner); expressed in transfected cells; host or cells: HEK293T cells stably expressing apoaequorin
T1 sequence (P19438 with tags, fused parts or gaps): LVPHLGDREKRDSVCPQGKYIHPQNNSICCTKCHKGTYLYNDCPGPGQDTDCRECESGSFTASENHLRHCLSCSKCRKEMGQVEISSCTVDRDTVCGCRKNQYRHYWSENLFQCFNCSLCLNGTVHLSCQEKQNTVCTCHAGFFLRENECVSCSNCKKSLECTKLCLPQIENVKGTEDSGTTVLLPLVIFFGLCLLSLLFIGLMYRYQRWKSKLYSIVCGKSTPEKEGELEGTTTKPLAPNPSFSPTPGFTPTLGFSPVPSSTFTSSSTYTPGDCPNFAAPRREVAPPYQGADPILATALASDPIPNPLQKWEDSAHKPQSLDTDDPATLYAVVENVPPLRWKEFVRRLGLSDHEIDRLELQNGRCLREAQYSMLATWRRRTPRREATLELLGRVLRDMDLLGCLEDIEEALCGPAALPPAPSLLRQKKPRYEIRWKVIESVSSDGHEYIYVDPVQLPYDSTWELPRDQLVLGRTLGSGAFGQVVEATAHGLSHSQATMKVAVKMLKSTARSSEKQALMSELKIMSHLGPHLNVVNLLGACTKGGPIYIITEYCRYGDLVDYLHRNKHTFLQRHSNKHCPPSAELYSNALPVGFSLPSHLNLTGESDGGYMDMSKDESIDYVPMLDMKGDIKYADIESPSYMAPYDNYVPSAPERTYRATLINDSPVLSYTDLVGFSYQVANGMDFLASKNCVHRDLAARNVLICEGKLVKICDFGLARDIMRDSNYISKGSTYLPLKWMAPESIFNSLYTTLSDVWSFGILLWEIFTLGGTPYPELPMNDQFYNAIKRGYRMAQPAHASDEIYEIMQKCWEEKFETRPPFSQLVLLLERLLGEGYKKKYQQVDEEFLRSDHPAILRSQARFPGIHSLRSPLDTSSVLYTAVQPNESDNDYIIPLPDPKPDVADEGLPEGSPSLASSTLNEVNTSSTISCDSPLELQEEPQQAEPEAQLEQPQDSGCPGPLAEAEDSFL
Excerpt: HEK293T stably expressing Apoaequorin were generated using standard cloning techniques. The HEK293T cells expressing Apoaequorin (“Aequorin cells”) were then further transfected as described in Examples 1-3 so as to express the chimeric receptors 1-3 as listed in Table 3.
In particular, the HEK293T Apoaequorin cells were transfected with pcDNA3.1 hygro TNFR1-fl-PDGFR-cd vector as prepared in Example 1 using Optifect™ Transfection Reagent (Invitrogen), according to the manufacturer's protocol.
HEK293T cells expressing Apoaequorin and the chimeric receptor (Example 4) were plated in 384-well plates at a concentration of 12500 cells per well in a final volume of 50 μl. The next day culture supernatants were removed and 25 μl labeling buffer (DMEM:F12 plus 0.1% BSA) containing 2.5 μM Coelenterazine h (Dalton Pharma services), was added. Cells were incubated at room temperature for 6 hrs. A FDSS7000 reader from Hamamatsu (Japan) was used to examine intracellular calcium levels. […] The instrument features include detection with a camera of fluorescence or luminescence and automatically converts fluorescence or luminescence signals into numeric data. This digital data is then used to determine the concentration of calcium inside the analyzed cells. The information is automatically analyzed in terms of a positive, negative or null effect of each test compound being examined. This system allowed differences between untreated and treated cells to be measured, for example by measuring the calcium flux in cells.
After a baseline reading of 10 seconds, cells were incubated for 3 minutes with different doses of inhibitors or buffer controls. […] The results were analyzed using the FDSS analysis software from Hamamatsu. […]
HEK293T Aequorin cells expressing fusion proteins as described in Example 4 were treated or not treated with 3 ng/ml of TNF and 300 ng/ml of an anti-TNFR1 antagonist monoclonal antibody (MAB225, R&D Systems) was added to half of the samples exposed to TNF. Following 10 minutes of exposure after TNF addition, the area under the curve was determined for each sample. […]

[2] = target: chimeric receptor TNFR1(fl)-PDGFR(cd): full length human TNFR1 fused to the cytoplasmic tyrosine kinase domain of mouse PDGFR (human TNFR1 / mouse PDGFR); assay: cell-based or functional assay
Target sequence (chain, as listed by the source mutant limits assumed): as the sequence (P19438 with tags, fused parts or gaps) above

| Effect on TNF-dependent intracellular calcium increase (luminescence AUC) ([1]; listed as PDGFR tyrosine kinase inhibitor) | Inhibitory efficacy (dose response), compared with full-length PDGFR cells ([1]; inhibitor 3 μM to 0.45 nM, cells exposed to TNF) | EC50, Ca2+-dependent aequorin luminescence, AUC over 10 minutes [2] [ng/mL] | EC50, Ca2+-dependent aequorin luminescence, Max-Min [2] [ng/mL] | EC80, Ca2+-dependent aequorin luminescence, AUC over 10 minutes [2] [ng/mL] | EC80, Ca2+-dependent aequorin luminescence, Max-Min [2] [ng/mL] | Compound | Effect on TNF-dependent intracellular calcium increase (luminescence AUC) [1] |
| --- | --- | --- | --- | --- | --- | --- | --- |
| signalling is blocked | equal inhibitory efficacy |  |  |  |  | COc1cc2ncnc(N3CCN(C(=O)Nc4ccc(Oc5ccccc5)cc4)CC3)c2cc1OC [PDGFR Tyrosine Kinase Inhibitor III, 4-(6,7-Dimethoxy-4-quinazolinyl)-N-(4-phenoxyphenyl)-1-piperazinecarboxamide] | prevented the detection of intracellular calcium increase |
|  |  | 1.27 | 1.06 | 2.9 | 3 | Tumor necrosis factor (TNF) (ligand) |  |
